Laboratory results: patent publication US20130171236A1, “Prevention and Treatment of Ischemia-Reperfusion Injury and Related Conditions” (MEDICAL UNIVERSITY OF SOUTH CAROLINA, priority 2006, published 2013)

Key:
C57B1/6 mice [1] = assay: Intestinal ischemia-reperfusion injury model in immune competent mice; type: in vivo; details: injected right before the reperfusion phase, FIG. 9
Description: To address this issue, the inventors created compounds that could block the effects of the monoclonal antibodies. This concept was first tested with the antibodies recognizing phospholipids, and liposomes were created composed of cholesterol and the phospholipids phosphatidylcholine and phosphoglycerol.
Wild type C57BL/6 are utilized for these studies. The ischemia-reperfusion model is performed as outlined briefly. Anesthesia is induced with ketamine (16 mg/kg) and xylazine (8 mg/kg) administered by intramuscular injection. All procedures are performed with the animals breathing spontaneously and body temperature maintained at 37° C. using a water-circulating heating pad. To induce ischemia-reperfusion injury, a midline laparotomy is performed prior to a 30 minute equilibration period. […] After this ischemic phase, the clamp is removed under direct visualization and the intestine allowed to perfuse for 2 hours. […] The laparotomy incisions are then sutured and the animals monitored during the reperfusion period. […]
For histology and immunohistochemistry, immediately after euthansia segments of small intestine specimens are fixed in 10% buffered formalin. […] In addition, the villus height of at least 10 villi from the same section is measured using an ocular micrometer. […]

C57B1/6 mice [2] = assay: MCAO ischemic stroke and reperfusion in C57B1/6 mice, treatment; type: in vivo; details: 100 μg i.v. at 30 min post reperfusion
Description: Eight week old male C57B1/6 and C57B1/6 C3 deficient mice (Jackson labs, Bar Harbor, Me.) were used in experiments. Mice were anesthetized with chloral hydrate (350 mg/kg) and xylazine (4 mg/kg) i.p., and the left common carotid artery of each mouse was exposed through a mid-line incision in the neck. […] The distal end of the ECA was ligated with 6-0 silk and transected, and 6-0 silk was tied loosely around the ECA stump. The clip was then removed, and the blunted tip of a 4-0 nylon suture was inserted into the ECA stump. The loop of the 6-0 silk was tightened around the stump, and the nylon suture advanced into and through the internal carotid artery until it rested in the anterior cerebral artery. After the nylon suture had been placed for 60 minutes, it was pulled back into the ECA, and the incision closed. […]
Infarct volume was measured by TTC staining and volume calculated using image analysis.
Animals were monitored for 24 hours post reperfusion and clinical assessed for neurological deficit. Behavioral/neurological deficit was scored as follows: 0, normal motor function; 1, flexion of torso and contralateral forelimb when animal is lifted by the tail; 2, circling to the contralateral side when held by tail on flat surface, but normal posture at rest; 3, leaning to the contralateral side at rest; 4, no spontaneous motor activity. […]

B1: annexin IV: recombinant annexin IV, a phospholipid binding protein, prepared as in Example 2 (protein, listed as Homo sapiens)
chain: MATKGGTVKAASGFNAMEDAQTLRKAMKGLGTDEDAIISVLAYRNTAQRQEIRTAYKSTIGRDLIDDLKSELSGNFEQVIVGMMTPTVLYDVQELRRAMKGAGTDEGCLIEILASRTPEEIRRISQTYQQQYGRSLEDDIRSDTSFMFQRVLVSLSAGGRDEGNYLDDALVRQDAQDLYEAGEKKWGTDEVKFLTVLCSRNRNHLLHVFDEYKRISQKDIEQSIKSETSGSFEDALLAIVKCMRNKSAYFAEKLYKSMKGLGTDDNTLIRVMVSRAEIDMLDIRAHFKRLYGKSLYSFIKGDTSGDYRKVLLVLCGGDD
intestinal ischemia-reperfusion injury (C57B1/6 mice [1]): nearly completely protected mice from ischemia-reperfusion injury
intestinal ischemia-reperfusion injury (C57B1/6 mice [1]; listed as recombinant annexin IV): reduces the level of intestinal ischemia reperfusion injury
neurological deficit (C57B1/6 mice [2]; 24 hours, FIG. 8): significant reduction in neurological deficit
cerebral infarct volume (TTC) (C57B1/6 mice [2]; FIG. 7): significantly protects against cerebral infarct
